Test results reported in paper PMC8184944, “Crystal structures of aconitase X enzymes from bacteria and archaea provide insights into the molecular evolution of the aconitase superfamily” (Communications Biology, 2021).

Experiments:
[1] = molecular target: T1, TkAcnX (Thermococcus kodakarensis, UniProt Q5JGJ6+Q5JGJ7); test: X-ray co-crystal structure, […] Å; format: binding; conditions: 40 mM MVA5P in co-crystallization; inactive form with [3Fe-4S] cluster; active site between subunits
T1 construct: gene TK1249; both subunits co-expressed in E. coli (pETDuet-1); His6 tag on small subunit cut off with 3C protease; heterodimer ~24 + ~42 kDa
T1 sequence (Q5JGJ7 whole entry): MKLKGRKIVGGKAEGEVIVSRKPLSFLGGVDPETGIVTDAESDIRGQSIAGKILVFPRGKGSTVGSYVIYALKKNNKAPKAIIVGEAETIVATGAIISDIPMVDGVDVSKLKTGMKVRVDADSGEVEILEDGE
T1 sequence (Q5JGJ6 whole entry): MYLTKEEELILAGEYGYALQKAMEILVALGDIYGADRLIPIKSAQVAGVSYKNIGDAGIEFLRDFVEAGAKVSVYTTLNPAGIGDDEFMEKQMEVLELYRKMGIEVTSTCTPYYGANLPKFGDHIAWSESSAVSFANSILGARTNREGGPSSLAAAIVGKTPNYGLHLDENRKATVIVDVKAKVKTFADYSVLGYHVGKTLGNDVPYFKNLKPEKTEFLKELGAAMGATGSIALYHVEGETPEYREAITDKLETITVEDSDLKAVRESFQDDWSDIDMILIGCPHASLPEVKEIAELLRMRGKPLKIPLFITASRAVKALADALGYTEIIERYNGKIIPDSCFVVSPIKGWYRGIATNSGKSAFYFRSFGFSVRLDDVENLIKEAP

[2] = substrate: O=C(O)[C@H]1NCC[C@H]1O; test: coupled spectrophotometric assay with NADH-dependent Pyr2C reductase; format: biochemical, Agrobacterium fabrum; conditions: free enzyme; coupling with NADH

Molecule	X-ray co-crystal structure, 1.9 Å [1]	Km [2] [µM]	kcat [2] [s⁻¹]
C[C@@](O)(CCOP(=O)(O)O)CC(=O)O [MVA5P]	co-crystallized the wild-type enzyme of TkAcnX (inactive form) with MVA5P	–	–
AtAcnX (Agrobacterium fabrum str. C58) (protein, E. coli BL21(DE3); monomer, ~59 kDa; [2Fe-2S] cluster) MSSAVSTTAAPEARSILAGAAEGKVIATTEALSFWGGVDPATGKVIDVHHPLHGICLTGGVLFMPTSRGSCTGSGVLLDLILTGRAPSALVFCEAEDVLTLGALVAAEMFDKALPVIRLDAETFSRFSRAAHVSIDQNTIKADGVSLAIAPPATAHLDLNDDDRAMLVGRDGIAVRQAMRIIVAMAAQQGASALVDVTQGHIDGCIYASPANLTFAEKMADMGGKVRAPSTMNAISVDKANWRAQGVPEDFGDPAARLADAYVRMGCKPTFTCSPYLLDSAPSAGESIAWAESNAVIFANTVLGARTAKHPDFLDLCIAMTGRAPLSGVYIEENRRPQRIVDVALPAGIDDAFWPLVGYLAGKAAPDCIPLLRGLGAAKPSRDDLKALCAAFGTTSASPMLHIEGATPEAGLAPLETAETVTISLQDMAAAWSLLNDGPEEVQLVAIGSPHASLEECRALAAVFAGRKRRADVAVIVTAGQQVIDAAGKDGTLQSLKDSGVQVLPDLCWCSISEPVFPTKTRALMTNSGKYAHYGPGLSGRAVRFGSLADCVESALTGRAVSRLPVWLS	–	1160 ± 110	33.33 ± 2.77
